# B1: human granulocyte colony-stimulating factor (ligand, UniProt P09919 31-207, looked up)
# chain: TPLGPASSLPQSFLLKCLEQVRKIQGDGAALQEKLVSECATYKLCHPEELVLLGHSLGIPWAPLSSCPSQALQLAGCLSQLHSGLFLYQGLLQALEGISPELGPTLDTLQLDVADFATTIWQQMEELGMAPALQPTQGAMPAFASAFQRRAGGVLVASHLQSFLEVSYRVLRHLAQP
# modifications: 125I Bolton-Hunter reagent label (site not stated)
# Tests used:
# [1] = biological target: T1, class I granulocyte colony-stimulating factor receptor (canonical, full-length isoform) (human, UniProt Q99062 25-836); assay: radioligand binding
# T1 sequence (looked up): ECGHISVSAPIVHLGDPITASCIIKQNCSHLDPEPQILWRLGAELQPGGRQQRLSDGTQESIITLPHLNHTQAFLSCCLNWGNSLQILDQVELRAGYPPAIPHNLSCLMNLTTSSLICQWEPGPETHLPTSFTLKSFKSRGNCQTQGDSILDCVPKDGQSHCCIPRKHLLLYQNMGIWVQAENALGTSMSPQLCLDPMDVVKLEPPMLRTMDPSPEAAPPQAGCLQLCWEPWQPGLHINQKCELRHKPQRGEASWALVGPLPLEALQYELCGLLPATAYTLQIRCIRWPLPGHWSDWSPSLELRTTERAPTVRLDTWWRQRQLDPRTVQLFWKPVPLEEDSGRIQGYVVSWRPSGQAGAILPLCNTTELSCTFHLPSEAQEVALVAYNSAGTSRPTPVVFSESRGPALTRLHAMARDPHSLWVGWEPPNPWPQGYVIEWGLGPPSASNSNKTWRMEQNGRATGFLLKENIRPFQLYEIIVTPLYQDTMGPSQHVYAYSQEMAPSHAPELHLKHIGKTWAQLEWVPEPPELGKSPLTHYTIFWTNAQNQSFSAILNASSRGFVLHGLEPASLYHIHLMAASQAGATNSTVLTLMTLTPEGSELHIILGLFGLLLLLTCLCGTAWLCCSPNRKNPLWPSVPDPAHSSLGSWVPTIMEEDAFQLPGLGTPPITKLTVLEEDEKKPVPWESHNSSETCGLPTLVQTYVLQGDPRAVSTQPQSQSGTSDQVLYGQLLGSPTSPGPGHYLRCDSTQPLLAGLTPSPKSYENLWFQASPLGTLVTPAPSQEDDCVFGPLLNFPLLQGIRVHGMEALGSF
# [2] = biological target: T2, class IV granulocyte colony-stimulating factor receptor (alternatively spliced, truncated isoform) (human, UniProt Q99062-4 25-783); assay: radioligand binding
# T2 sequence (looked up): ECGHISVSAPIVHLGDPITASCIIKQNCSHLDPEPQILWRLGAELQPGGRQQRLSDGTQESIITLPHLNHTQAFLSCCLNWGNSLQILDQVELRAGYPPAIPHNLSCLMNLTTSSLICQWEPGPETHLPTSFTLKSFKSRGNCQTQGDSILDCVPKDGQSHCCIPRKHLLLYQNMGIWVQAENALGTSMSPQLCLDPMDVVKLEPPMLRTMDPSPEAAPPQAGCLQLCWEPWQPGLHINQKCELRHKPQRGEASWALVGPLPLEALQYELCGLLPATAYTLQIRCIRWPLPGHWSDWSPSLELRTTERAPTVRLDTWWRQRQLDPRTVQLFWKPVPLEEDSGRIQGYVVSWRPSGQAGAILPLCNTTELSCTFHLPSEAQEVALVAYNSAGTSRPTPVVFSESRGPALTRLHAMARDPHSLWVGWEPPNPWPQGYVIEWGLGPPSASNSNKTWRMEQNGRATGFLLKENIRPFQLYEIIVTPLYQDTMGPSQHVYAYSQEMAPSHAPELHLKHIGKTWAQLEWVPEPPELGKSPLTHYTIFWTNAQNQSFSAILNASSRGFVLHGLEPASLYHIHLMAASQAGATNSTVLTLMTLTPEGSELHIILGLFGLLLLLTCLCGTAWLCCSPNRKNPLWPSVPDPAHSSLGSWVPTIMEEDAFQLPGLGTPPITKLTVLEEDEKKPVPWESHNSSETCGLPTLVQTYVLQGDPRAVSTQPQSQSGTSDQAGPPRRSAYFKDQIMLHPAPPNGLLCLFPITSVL
binder,measurement,setting,value
B1,Kd,[1],0.58 nM
same,Kd,[2],0.53 nM

# Source: PMC5875430 (Leukemia, 2013)
